The values that follow come from paper PMC7806473.

Usually stoichiometry N stands for the number of molecules, sites or subunits per partner or assembly.

The target in assay [1] is T1, bovine alpha-lactalbumin (α-LA), calcium-depleted (bovine), P00711.
T1 chain: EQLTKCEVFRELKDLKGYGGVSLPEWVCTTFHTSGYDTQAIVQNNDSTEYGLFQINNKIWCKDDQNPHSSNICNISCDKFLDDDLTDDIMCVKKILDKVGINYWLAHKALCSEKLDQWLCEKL
In words: MALDI-TOF-MS; 1:1 v/v mixture of 0.1% aqueous trifluoroacetic acid MALDI matrix and 50 mM sinapinic acid ionization matrix. Conditions: remark: other sources report otherwise.

Assay [2] has as its target T1, bovine alpha-lactalbumin (α-LA), …. In words: AUC; sedimentation velocity, 50,000 rpm, 20 °C, absorbance at 280 nm, c(s) continuous distribution analysis with SEDFIT. Conditions: remark: other sources report otherwise.

Where “and” joins values, the source holds several entries; their conditions need not be identical. Equal values may be shown once.

B1: bovine alpha-lactalbumin (α-LA), calcium-depleted, P00711 20-142 (natural protein)
chain: T1 chain
Take B1: the stoichiometry N is 2 and 3 and 4 in assay [1]; 2 and 3 in assay [2].
